Publication PMC4738012 (Journal of molecular biology, 2015)

How the values were obtained:
Assay in all cases: flow cytometry on cells
[1] = target: RMF peptide on HLA-A*02 of peptide-pulsed T2 cells (Homo sapiens, HLA-A*02:01, strain)
[2] = target: PIGQ peptide … on HLA-A*02:01 of peptide-pulsed T2 cells (Homo sapiens, HLA-A*02:01 (T2 cells))
[3] = target: MED13L peptide … on HLA-A*02:01 of peptide-pulsed T2 cells (Homo sapiens, HLA-A*02:01 (T2 cells))

binding result [1]: binds
binding result [2]: binds
binding result [3]: binds
B1: ESK1 full-length human IgG1 antibody (antibody, V domains shown)
VH: QMQLVQSGAEVKEPGESLRISCKGSGYSFTNFWISWVRQMPGKGLEWMGRVDPGYSYSTYSPSFQGHVTISADKSTSTAYLQWNSLKASDTAMYYCARVQYSGYYDWFDPWGQGTLVTVSS
VL: not shown
